3 variants from IntAct's records for PubMed 27332895 can be followed below.

To fix the notation:
B1: Aurora kinase C (Homo sapiens), Q9UQB9 (parent)
chain: MSSPRAVVQLGKAQPAGEELATANQTAQQPSSPAMRRLTVDDFEIGRPLGKGKFGNVYLARLKESHFIVALKVLFKSQIEKEGLEHQLRREIEIQAHLQHPNILRLYNYFHDARRVYLILEYAPRGELYKELQKSEKLDEQRTATIIEELADALTYCHDKKVIHRDIKPENLLLGFRGEVKIADFGWSVHTPSLRRKTMCGTLDYLPPEMIEGRTYDEKVDLWCIGVLCYELLVGYPPFESASHSETYRRILKVDVRFPLSMPLGARDLISRLLRYQPLERLPLAQILKHPWVQAHSRRVLPPCAQMAS

The first assay covers variants of B1. The note with it: with ince_human INCENP.
For T198A, the “effect of a mutation on the interaction” value is “disrupting interaction”. Consider T202A, for which the “effect of a mutation on the interaction” value is listed as “disrupting interaction”.

Variants of B1 are the subject of a further assay. The note with it: with ince_human INCENP. The source holds these as a separate data set.
For the variant K76R, the “effect of a mutation on the interaction” value is “disrupting interaction”.
